Source: PMC7367873, “Dissecting the sequence determinants for dephosphorylation by the catalytic subunits of phosphatases PP1 and PP2A” (Nature Communications, 2020)

How the values were obtained:
GFP-14-3-3β = GFP-14-3-3β co-IP with LC-MS/MS, untreated GFP-14-3-3β versus GFP control (14-3-3 interactome); type: binding, human
[1] = tested on: GFP-14-3-3β and its binding proteins; experiment: GFP-14-3-3β co-IP with LC-MS/MS label-free quantification, untreated versus PP1c-treated; design: species or system human
[2] = untreated vs GFP, LFQ intensities, replicates 1-3
[3] = PP1 vs untreated, LFQ intensities, replicates 1-3
[4] = log2 difference, pairwise comparison untreated vs GFP, label-free quantification, 3 replicates each
[5] = log2 difference, pairwise comparison PP1 vs untreated, label-free quantification, 3 replicates each

B1: UTP18 (protein, UniProt Q9Y5J1 1-556, looked up)
U3 small nucleolar …: MPPERRRRMKLDRRTGAKPKRKPGMRPDWKAGAGPGGPPQKPAPSSQRKPPARPSAAAAAIAVAAAEEERRLRQRNRLRLEEDKPAVERCLEELVFGDVENDEDALLRRLRGPRVQEHEDSGDSEVENEAKGNFPPQKKPVWVDEEDEDEEMVDMMNNRFRKDMMKNASESKLSKDNLKKRLKEEFQHAMGGVPAWAETTKRKTSSDDESEEDEDDLLQRTGNFISTSTSLPRGILKMKNCQHANAERPTVARISSVQFHPGAQIVMVAGLDNAVSLFQVDGKTNPKIQSIYLERFPIFKACFSANGEEVLATSTHSKVLYVYDMLAGKLIPVHQVRGLKEKIVRSFEVSPDGSFLLINGIAGYLHLLAMKTKELIGSMKINGRVAASTFSSDSKKVYASSGDGEVYVWDVNSRKCLNRFVDEGSLYGLSIATSRNGQYVACGSNCGVVNIYNQDSCLQETNPKPIKAIMNLVTGVTSLTFNPTTEILAIASEKMKEAVRLVHLPSCTVFSNFPVIKNKNISHVHTMDFSPRSGYFALGNEKGKALMYRLHHYSDF
Difference (log2), untreated vs GFP (GFP-14-3-3β; [2]): 2.416 log2
Difference (log2), PP1 vs untreated [1, 3]: -0.8415 log2

B2: NOP56 (protein, UniProt O00567 1-594, looked up)
Nucleolar protein 56: MVLLHVLFEHAVGYALLALKEVEEISLLQPQVEESVLNLGKFHSIVRLVAFCPFASSQVALENANAVSEGVVHEDLRLLLETHLPSKKKKVLLGVGDPKIGAAIQEELGYNCQTGGVIAEILRGVRLHFHNLVKGLTDLSACKAQLGLGHSYSRAKVKFNVNRVDNMIIQSISLLDQLDKDINTFSMRVREWYGYHFPELVKIINDNATYCRLAQFIGNRRELNEDKLEKLEELTMDGAKAKAILDASRSSMGMDISAIDLINIESFSSRVVSLSEYRQSLHTYLRSKMSQVAPSLSALIGEAVGARLIAHAGSLTNLAKYPASTVQILGAEKALFRALKTRGNTPKYGLIFHSTFIGRAAAKNKGRISRYLANKCSIASRIDCFSEVPTSVFGEKLREQVEERLSFYETGEIPRKNLDVMKEAMVQAEEAAAEITRKLEKQEKKRLKKEKKRLAALALASSENSSSTPEECEEMSEKPKKKKKQKPQEVPQENGMEDPSISFSKPKKKKSFSKEELMSSDLEETAGSTSIPKRKKSTPKEETVNDPEEAGHRSGSKKKRKFSKEEPVSSGPEEAVGKSSSKKKKKFHKASQED
Difference (log2), untreated vs GFP (GFP-14-3-3β; [2]): 2.987 log2
Difference (log2), PP1 vs untreated [1, 3]: -0.8589 log2

B3: COPB1 (protein, UniProt P53618 2-953, looked up)
Coatomer subunit beta: TAAENVCYTLINVPMDSEPPSEISLKNDLEKGDVKSKTEALKKVIIMILNGEKLPGLLMTIIRFVLPLQDHTIKKLLLVFWEIVPKTTPDGRLLHEMILVCDAYRKDLQHPNEFIRGSTLRFLCKLKEAELLEPLMPAIRACLEHRHSYVRRNAVLAIYTIYRNFEHLIPDAPELIHDFLVNEKDASCKRNAFMMLIHADQDRALDYLSTCIDQVQTFGDILQLVIVELIYKVCHANPSERARFIRCIYNLLQSSSPAVKYEAAGTLVTLSSAPTAIKAAAQCYIDLIIKESDNNVKLIVLDRLIELKEHPAHERVLQDLVMDILRVLSTPDLEVRKKTLQLALDLVSSRNVEELVIVLKKEVIKTNNVSEHEDTDKYRQLLVRTLHSCSVRFPDMAANVIPVLMEFLSDNNEAAAADVLEFVREAIQRFDNLRMLIVEKMLEVFHAIKSVKIYRGALWILGEYCSTKEDIQSVMTEIRRSLGEIPIVESEIKKEAGELKPEEEITVGPVQKLVTEMGTYATQSALSSSRPTKKEEDRPPLRGFLLDGDFFVAASLATTLTKIALRYVALVQEKKKQNSFVAEAMLLMATILHLGKSSLPKKPITDDDVDRISLCLKVLSECSPLMNDIFNKECRQSLSHMLSAKLEEEKLSQKKESEKRNVTVQPDDPISFMQLTAKNEMNCKEDQFQLSLLAAMGNTQRKEAADPLASKLNKVTQLTGFSDPVYAEAYVHVNQYDIVLDVLVVNQTSDTLQNCTLELATLGDLKLVEKPSPLTLAPHDFANIKANVKVASTENGIIFGNIVYDVSGAASDRNCVVLSDIHIDIMDYIQPATCTDAEFRQMWAEFEWENKVTVNTNMVDLNDYLQHILKSTNMKCLTPEKALSGYCGFMAANLYARSIFGEDALANVSIEKPIHQGPDAAVTGHIRIRAKSQGMALSLGDKINLSQKKTSI
Difference (log2), untreated vs GFP (GFP-14-3-3β; [2]): 0.6071 log2
Difference (log2), PP1 vs untreated [1, 3]: -0.8147 log2

B4: HSPD1 (protein, UniProt P10809 27-573, looked up)
60 kDa heat shock protein, …: AKDVKFGADARALMLQGVDLLADAVAVTMGPKGRTVIIEQSWGSPKVTKDGVTVAKSIDLKDKYKNIGAKLVQDVANNTNEEAGDGTTTATVLARSIAKEGFEKISKGANPVEIRRGVMLAVDAVIAELKKQSKPVTTPEEIAQVATISANGDKEIGNIISDAMKKVGRKGVITVKDGKTLNDELEIIEGMKFDRGYISPYFINTSKGQKCEFQDAYVLLSEKKISSIQSIVPALEIANAHRKPLVIIAEDVDGEALSTLVLNRLKVGLQVVAVKAPGFGDNRKNQLKDMAIATGGAVFGEEGLTLNLEDVQPHDLGKVGEVIVTKDDAMLLKGKGDKAQIEKRIQEIIEQLDVTTSEYEKEKLNERLAKLSDGVAVLKVGGTSDVEVNEKKDRVTDALNATRAAVEEGIVLGGGCALLRCIPALDSLTPANEDQKIGIEIIKRTLKIPAMTIAKNAGVEGSLIVEKIMQSSSEVGYDAMAGDFVNMVEKGIIDPTKVVRTALLDAAGVASLLTTAEVVVTEIPKEEKDPGMGAMGGMGGGMGGGMF
Difference (log2), untreated vs GFP (GFP-14-3-3β; [2]): -0.2089 log2
Difference (log2), PP1 vs untreated [1, 3]: -0.8196 log2

B5: SLC16A3 (protein, UniProt O15427 2-465, looked up)
Monocarboxylate transporter 4: GGAVVDEGPTGVKAPDGGWGWAVLFGCFVITGFSYAFPKAVSVFFKELIQEFGIGYSDTAWISSILLAMLYGTGPLCSVCVNRFGCRPVMLVGGLFASLGMVAASFCRSIIQVYLTTGVITGLGLALNFQPSLIMLNRYFSKRRPMANGLAAAGSPVFLCALSPLGQLLQDRYGWRGGFLILGGLLLNCCVCAALMRPLVVTAQPGSGPPRPSRRLLDLSVFRDRGFVLYAVAASVMVLGLFVPPVFVVSYAKDLGVPDTKAAFLLTILGFIDIFARPAAGFVAGLGKVRPYSVYLFSFSMFFNGLADLAGSTAGDYGGLVVFCIFFGISYGMVGALQFEVLMAIVGTHKFSSAIGLVLLMEAVAVLVGPPSGGKLLDATHVYMYVFILAGAEVLTSSLILLLGNFFCIRKKPKEPQPEVAAAEEEKLHKPPADSGVDLREVEHFLKAEPEKNGEVVHTPETSV
Difference (log2), untreated vs GFP (GFP-14-3-3β; [4]): 0.1883
Difference (log2), PP1 vs untreated [1, 5]: 1.651

B6: KRT18 (protein, UniProt P05783 2-430, looked up)
Keratin, type I cytoskeletal …: SFTTRSTFSTNYRSLGSVQAPSYGARPVSSAASVYAGAGGSGSRISVSRSTSFRGGMGSGGLATGIAGGLAGMGGIQNEKETMQSLNDRLASYLDRVRSLETENRRLESKIREHLEKKGPQVRDWSHYFKIIEDLRAQIFANTVDNARIVLQIDNARLAADDFRVKYETELAMRQSVENDIHGLRKVIDDTNITRLQLETEIEALKEELLFMKKNHEEEVKGLQAQIASSGLTVEVDAPKSQDLAKIMADIRAQYDELARKNREELDKYWSQQIEESTTVVTTQSAEVGAAETTLTELRRTVQSLEIDLDSMRNLKASLENSLREVEARYALQMEQLNGILLHLESELAQTRAEGQRQAQEYEALLNIKVKLEAEIATYRRLLEDGEDFNLGDALDSSNSMQTIQKTTTRRIVDGKVVSETNDTKVLRH
Difference (log2), untreated vs GFP (GFP-14-3-3β; [4]): -2.259
Difference (log2), PP1 vs untreated [1, 5]: 1.649

B7: CDC42EP1 (protein, UniProt Q00587 1-391, looked up)
Cdc42 effector protein 1: MPGPQGGRGAATMSLGKLSPVGWVSSSQGKRRLTADMISHPLGDFRHTMHVGRGGDVFGDTSFLSNHGGSSGSTHRSPRSFLAKKLQLVRRVGAPPRRMASPPAPSPAPPAISPIIKNAISLPQLNQAAYDSLVVGKLSFDSSPTSSTDGHSSYGLDSGFCTISRLPRSEKPHDRDRDGSFPSEPGLRRSDSLLSFRLDLDLGPSLLSELLGVMSLPEAPAAETPAPAANPPAPTANPTGPAANPPATTANPPAPAANPSAPAATPTGPAANPPAPAASSTPHGHCPNGVTAGLGPVAEVKSSPVGGGPRGPAGPALGRHWGAGWDGGHHYPEMDARQERVEVLPQARASWESLDEEWRAPQAGSRTPVPSTVQANTFEFADAEEDDEVKV
Difference (log2), untreated vs GFP (GFP-14-3-3β; [2]): 1.906 log2
Difference (log2), PP1 vs untreated [1, 3]: -0.8522 log2

B8: CDR2L (protein, UniProt Q86X02 1-465, looked up)
Cerebellar …: MRRAAGMEDFSAEEEESWYDQQDLEQDLHLAAELGKTLLERNKELEGSLQQMYSTNEEQVQEIEYLTKQLDTLRHVNEQHAKVYEQLDLTARDLELTNHRLVLESKAAQQKIHGLTETIERLQAQVEELQAQVEQLRGLEQLRVLREKRERRRTIHTFPCLKELCTSPRCKDAFRLHSSSLELGPRPLEQENERLQTLVGALRSQVSQERQRKERAEREYTAVLQEYSELERQLCEMEACRLRVQELEAELLELQQMKQAKTYLLGPDDHLAEALLAPLTQAPEADDPQPGRGDDLGAQDGVSSPAASPGHVVRKSCSDTALNAIVAKDPASRHAGNLTLHANSVRKRGMSILREVDEQYHALLEKYEELLSKCRQHGAGVRHAGVQTSRPISRDSSWRDLRGGEEGQGEVKAGEKSLSQHVEAVDKRLEQSQPEYKALFKEIFSRIQKTKADINATKVKTHSSK
Difference (log2), untreated vs GFP (GFP-14-3-3β; [2]): 4.028 log2
Difference (log2), PP1 vs untreated [1, 3]: -0.8285 log2

B9: NOLC1 (protein, UniProt Q14978 1-699, looked up)
Nucleolar and coiled-body …: MADAGIRRVVPSDLYPLVLGFLRDNQLSEVANKFAKATGATQQDANASSLLDIYSFWLKSAKVPERKLQANGPVAKKAKKKASSSDSEDSSEEEEEVQGPPAKKAAVPAKRVGLPPGKAAAKASESSSSEESSDDDDEEDQKKQPVQKGVKPQAKAAKAPPKKAKSSDSDSDSSSEDEPPKNQKPKITPVTVKAQTKAPPKPARAAPKIANGKAASSSSSSSSSSSSDDSEEEKAAATPKKTVPKKQVVAKAPVKAATTPTRKSSSSEDSSSDEEEEQKKPMKNKPGPYSSVPPPSAPPPKKSLGTQPPKKAVEKQQPVESSEDSSDESDSSSEEEKKPPTKAVVSKATTKPPPAKKAAESSSDSSDSDSSEDDEAPSKPAGTTKNSSNKPAVTTKSPAVKPAAAPKQPVGGGQKLLTRKADSSSSEEESSSSEEEKTKKMVATTKPKATAKAALSLPAKQAPQGSRDSSSDSDSSSSEEEEEKTSKSAVKKKPQKVAGGAAPSKPASAKKGKAESSNSSSSDDSSEEEEEKLKGKGSPRPQAPKANGTSALTAQNGKAAKNSEEEEEEKKKAAVVVSKSGSLKKRKQNEAAKEAETPQAKKIKLQTPNTFPKRKKGEKRASSPFRRVREEEIEVDSRVADNSFDAKRGAAGDWGERANQVLKFTKGKSFRHEKTKKKRGSYRGGSISVQVNSIKFDSE
Difference (log2), untreated vs GFP (GFP-14-3-3β; [2]): 2.872 log2
Difference (log2), PP1 vs untreated [1, 3]: -0.8521 log2

B10: YWHAH (protein, UniProt Q04917 2-246, looked up)
14-3-3 protein eta: GDREQLLQRARLAEQAERYDDMASAMKAVTELNEPLSNEDRNLLSVAYKNVVGARRSSWRVISSIEQKTMADGNEKKLEKVKAYREKIEKELETVCNDVLSLLDKFLIKNCNDFQYESKVFYLKMKGDYYRYLAEVASGEKKNSVVEASEAAYKEAFEISKEQMQPTHPIRLGLALNFSVFYYEIQNAPEQACLLAKQAFDDAIAELDTLNEDSYKDSTLIMQLLRDNLTLWTSDQQDEEAGEGN
Difference (log2), untreated vs GFP (GFP-14-3-3β; [2]): 7.762 log2
Difference (log2), PP1 vs untreated [1, 3]: -0.8796 log2
